B1: SEQID-00529: protein of the 168 nutritive polypeptide library (protein)
chain: MLGYISAGKMGSSPSGARFFKYEVVGMRQNDETDKTEYQIRSSGSQFVIVPYNRMNQEMRRINRMGGKIVSIEPMTTDNTVSEAEGE
modifications: Arthrospira platensis Sp-1
notes: protein of the 168 nutritive polypeptide library
B2: SEQID-00497: protein of the 168 nutritive polypeptide library (protein, listed as Saccharomyces cerevisiae)
chain: MSIASYAQELKLALHQYPNFPSEGILFEDFLPIFRNPGLFQKLIDAFKLHLEEAFPEVKIDYIVGLESRGFLFGPTLALALGVGFVPVRKAGKLPGECFKATYEKEYGSDLFEIQKNAIPAGSNVIIVDDIIATGGSAAAAGELVEQLEANLLEYNFVMELDFLKGRSKLNAPVFTLLNAQKEALKK
modifications: source: /note="strain ATCC 204508 / S288c"
notes: as for B1
B3: SEQID-00518: protein of the 168 nutritive polypeptide library (protein, listed as Lactobacillus acidophilus)
chain: MTKGILGRKVGMTQIFTKDGVLVPVTVVEATPNVVMQVKTVESDGYEAVQLGYQDKREVLSNKPEKGHADKAKTSPKRFIREIRGVELKDYEVGSEVTVDTFKEGDVVNVTGTSRGHGYQGNIKRWGQSRGPETHGSRYHRIPGSMGSIINRVPKGKRLPGHMGVKKVTIENLVIEKVVADKNVLMIKGNVPGAKNSLIVVKTASKAVKADK
modifications: source: /note="strain 30SC"
notes: as for B1
B4: SEQID-00528: protein of the 168 nutritive polypeptide library (protein, listed as Saccharomyces cerevisiae)
chain: MVLVQDLLHPTAASEARKHKLKTLVQGPRSYFLDVKCPGCLNITTVFSHAQTAVTCESCSTVLCTPTGGKAKLSEGTSFRRK
modifications: source: /note="strain ATCC 204508 / S288c"
notes: as for B1
B5: SEQID-00520: protein of the 168 nutritive polypeptide library (protein, listed as Gallus gallus)
chain: MSDEEKKRRAATARRQHLKSAMLQLAVTEIEKEAAAKEVEKQNYLAEHCPPLSLPGSMQELQELCKKLHAKIDSVDEERYDTEVKLQKTNKELEDLSQKLFDLRGKFKRPPLRRVRMSADAMLRALLGSKHKVNMDLRANLKQVKKEDTEKEKDLRDVGDWRKNIEEKSGMEGRKKMFEAGES
B6: SEQID-00507: protein of the 168 nutritive polypeptide library (protein, listed as Agaricus bisporus)
chain: MISFYDLTAKPPFKTVSVNSWKIRYALNFKNLPYKTLYFEFPDMAKEFSKVGIPPSSVSADGPSYTVPSLIDDSTNTRISESFTIALYLDKQYPDAPKLFPAGTEALQAAFHEEFYKVMSPTFPFFFPKAGNVLNKPSDDYFAVTRAKMFGMSMADFEPKGEARVEAWKKVKDAFDTLESWMSKTSGPFFMGETVSFADFVIGGLLNEFSMCMGENSPEWQDVLKWNNGRWATLKKKLEVYANTDQ
modifications: source: /note="var. bisporus"; source: /note="strain H97 / ATCC MYA-4626 / FGSC 10389"
notes: as for B1
B7: SEQID-00521: protein of the 168 nutritive polypeptide library (protein, listed as Arthrospira platensis)
chain: MQDAITSVINSSDVQGKYLDASAIQKLKAYFATGELRVRAATTISANAANIVKEAVAKSLLYSDITRPGGNMYTTRRYAACIRDLDYYLRYATYAMLAGDPSILDERVLNGLKETYNSLGVPIGATVQAIQAMKEVTAGLVGADAGKEMGIYFDYICSGLS
B8: SEQID-00515: protein of the 168 nutritive polypeptide library (protein, listed as Saccharomyces cerevisiae)
chain: MSNLLNKFADKLHGNDHDERYEDDNDDQTRQQRHEKHQQREFRNQGSKADPYGEENQGNFPQRQQPQSNLGGNTQFGGNDFQQQTTDYTAGTGGGTYTQTYRETNTQGQLDDDEDDDFLTSGQQQKQGRTRGAQSNRYQSSNIGSGRRDLSGSGNDEYDDDSGNQGVW
modifications: source: /note="strain ATCC 204508 / S288c"
notes: as for B1
B9: SEQID-00532: protein of the 168 nutritive polypeptide library (protein)
chain: MSIAVGMIETIGFPAVVEAADSMVKAARVTLVGYEKIGSGRVTVIVRGDVSEVQASVSAGIESVKRVNGGEVSSTHIIARPHENLEYVLPIRYTDAVEQFRSY
modifications: Arthrospira platensis NIES-39
notes: as for B1
B10: SEQID-00524: protein of the 168 nutritive polypeptide library (protein)
chain: MPAWYSIDSRVRGTSLVVKGLKENVEYHFRVSAENQFGISKPMKSEEPVIPKTPLSKASSNHNTVNFLS
modifications: Ovis aries
notes: as for B1
B11: SEQID-00484: protein of the 168 nutritive polypeptide library (protein, listed as Saccharomyces cerevisiae)
chain: MSEKFPPLEDQNIDFTPNDKKDDDTDFLKREAEILGDEFKTEQDDILETEASPAKDDDEIRDFEEQFPDINSANGAVSSDQNGSATVSSGNDNGEADDDFSTFEGANQSTESVKEDRSEVVDQWKQRRAVEIHEKDLKDEELKKELQDEAIKHIDDFYDSYNKKKEQQLEDAAKEAEAFLKKRDEFFGQDNTTWDRALQLINQDDADIIGGRDRSKLKEILLRLKGNAKAPGA
modifications: source: /note="strain ATCC 204508 / S288c"
notes: as for B1
B12: SEQID-00533: protein of the 168 nutritive polypeptide library (protein)
chain: MVTEFQTRDLADVIRRPIVTEKATIQMELNQFTFDVDPRADKPTIKAAVELLFPVKVLSVNTQNPPRRQRRVGRFVGYKPRYKRAIVTLEDGEALRKVLFPEV
modifications: Arthrospira platensis NIES-39
notes: as for B1
B13: SEQID-00489: protein of the 168 nutritive polypeptide library (protein, listed as Saccharomyces cerevisiae)
chain: MSVEEVSKKFEENVSVDDTTATPKTVLSDSAHFDVKHPLNTKWTLWYTKPAVDKSESWSDLLRPVTSFQTVEEFWAIIQNIPEPHELPLKSDYHVFRNDVRPEWEDEANAKGGKWSFQLRGKGADIDELWLRTLLAVIGETIDEDDSQINGVVLSIRKGGNKFALWTKSEDKEPLLRIGGKFKQVLKLTDDGHLEFFPHSSANGRHPQPSITL
modifications: source: /note="strain ATCC 204508 / S288c"
notes: as for B1
B14: SEQID-00525: protein of the 168 nutritive polypeptide library (protein, listed as Saccharomyces cerevisiae)
chain: MTKNFIVTLKKNTPDVEAKKFLDSVHHAGGSIVHEFDIIKGYTIKVPDVLHLNKLKEKHNDVIENVEEDKEVHT
modifications: source: /note="strain ATCC 204508 / S288c"
notes: as for B1
B15: SEQID-00509: protein of the 168 nutritive polypeptide library (protein, listed as Gadus morhua)
chain: MSDTEDVDQVEDEKPKFKPSAPKIPDGEKVDFDDIQKKRQNKDLSELQGLIDAHFEGRKKEEEELIALKERIEKRRAERAEQQRIRSEKDKERQARREEERLKREEADAKKKMEEDAKKKSALSNMGSNYSSHLQKADQKRGGGKKETEREKKKKILAARRKGLNIDHLNEDKLKDKINELHEWMSTLESEKFDHMERLNRQKYEVTTLRKRVEELSKFSKKGKTVRRK
B16: SEQID-00495: protein of the 168 nutritive polypeptide library (protein, listed as Vitis vinifera)
chain: MEKNVESDPNPPLASGPEFPPATTPADVKNDVALEKSVVPPPEVKADESKALAVVEKTPDSAAKKTSGGSFERDVALANLEKEKQLSFIRAWEESEKSKVDNKAQKKLSDVCAWENSKKAAVEANLKKIEEELEKKKAEYAEKMKNKVALIHKQAEEKKAMIEARRGEEFLKAEEMAAKFRATGQTPKKVLGCFGG
B17: SEQID-00534: protein of the 168 nutritive polypeptide library (protein)
chain: MSIYVGNLSYEVTEDDLTAVFAEYGSVKRVKLPTDRETGRMRGFGFVEMDTEAEEQSAIDALDGAEWCGRDLRVNKAKPRENSGSFGGGGGGRRGGGGYSRRS
modifications: Arthrospira platensis NIES-39
notes: as for B1

Assay: SGF digest of 168 nutritive polypeptide library, intact protein by LC-MS/MS
Format: in vitro ADME
Details: 168 nutritive polypeptide library SGF digest, LC-MS/MS spectral counts
Description: The in vitro intact half-life of multiple polypeptides in a complex mixture was determined using the simulated gastric in vitro digestion described above. Briefly, the 168 nutritive polypeptide library was generated as described herein by cloning, transforming, and expressing a gene library encoding 168 proteins as a single mixture. The recombinantly expressed proteins were purified from host cell proteins by IMAC purification as described herein.
The 168 Protein Library was treated with SGF as described above and the t=0 and t=10 min samples were analyzed for intact protein by LC-MS/MS. To begin, 10 μg of sample was loaded onto a 10% SDS-PAGE gel (Invitrogen) and run approximately 5 cm into the gel. The gel was excised into ten fractions from 100 kD to the dye front and the gel slices were processed by washing with 25 mM ammonium bicarbonate, followed by acetonitrile. Gel fractions were then reduced with 10 mM dithiothreitol at 60° C., followed by alkylation with 50 mM iodoacetamide at room temperature. Finally, the samples were digested with trypsin (Promega) at 37° C. for 4 h and the digestions were quenched with the addition of formic acid. The samples were then analyzed by nano LC/MS/MS using an EasynLC 1000 HPLC system interfaced to a ThermoFisher Q Exactive. Peptides were loaded on a trapping column and eluted over a 75 μm analytical column at 350 nL/min; both columns were packed with PepMap C18 3 μm resin (ThemoFisher). A 1 hour gradient was employed. The mass spectrometer was operated in data-dependent mode, with MS and MS/MS performed in the Orbitrap at 70,000 FWHM resolution and 17,500 FWHM resolution, respectively. The fifteen most abundant ions were selected for MS/MS. Data were searched against an appropriate database using Mascot to identify peptides. Mascot DAT files were parsed into the Scaffold software for validation, filtering and to create a nonredundant list per sample. Data were filtered at 1% protein and peptide false discovery rate (FDR) and requiring at least two unique peptides per protein. A full list of detected proteins and their spectral counts (SpC) was generated and reported as a function of each collected gel fraction. SpC are a count of the number of spectra identified for a given protein and are used as a measure of relative protein abundance (Liu, H. et al., Analytical Chemistry 2004, 76: 4193-4201). To calculate the percentage of intact protein remaining at the 10 min time point of the SGF digest the number of SpC representative of intact peptide in the t=10 min sample were divided by the number of SpC representative of intact peptide in the t=0 min sample. The number of SpC representative of intact peptide was defined as the sum of the SpC in the fraction with the highest number of SpC assigned to that protein in the t=0 min sample and the two flanking fractions.

Molecule	% Intact Protein at 10 min [%]
B1	0
B2	20.3
B3	0
B4	11.8
B5	0
B6	0
B7	11.5
B8	17
B9	0
B10	0
B11	0
B12	19
B13	0
B14	13.7
B15	36.4
B16	0
B17	0

Reference: US20160228506A1, “Compositions and Formulations for Prevention and Reduction of Tumorigenesis, Cancer Cell Proliferation and Invasion, and Methods of Production and Use Thereof in Cancer Treatment” (PRONUTRIA, INC., priority 2013, published 2016)
